Data as given in US20190169305A1 (TEIKYO HEISEI UNIVERSITY, published 2019).

Experiments:
[1] = target: T1, mouse TRAIL-R2:alpaca Fc (mTRAIL-R2:Fc) (mouse; Lama pacos (alpaca), UniProt Q9QZM4 52-177); experiment: ELISA, antigens coated at 1 µg/ml, VHH monomer at 10 µg/ml, absorbance 450 nm
T1 construct: range 52-177;range 102-335; also called mTRAIL (mouse TRAIL)-R2:Fc
T1 sequence: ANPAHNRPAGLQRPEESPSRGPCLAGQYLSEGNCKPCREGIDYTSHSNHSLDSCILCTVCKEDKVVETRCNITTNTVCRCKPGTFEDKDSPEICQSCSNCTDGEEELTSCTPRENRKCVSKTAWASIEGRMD

[2] = target: T2, human TRAIL-R1:alpaca Fc (hTRAIL-R1:Fc) (human; Lama pacos (alpaca)); experiment: as above
T2 construct: also called hTRAIL-R1:Fc antigen; recombinant human TRAIL-R1 ECD
T2 chain: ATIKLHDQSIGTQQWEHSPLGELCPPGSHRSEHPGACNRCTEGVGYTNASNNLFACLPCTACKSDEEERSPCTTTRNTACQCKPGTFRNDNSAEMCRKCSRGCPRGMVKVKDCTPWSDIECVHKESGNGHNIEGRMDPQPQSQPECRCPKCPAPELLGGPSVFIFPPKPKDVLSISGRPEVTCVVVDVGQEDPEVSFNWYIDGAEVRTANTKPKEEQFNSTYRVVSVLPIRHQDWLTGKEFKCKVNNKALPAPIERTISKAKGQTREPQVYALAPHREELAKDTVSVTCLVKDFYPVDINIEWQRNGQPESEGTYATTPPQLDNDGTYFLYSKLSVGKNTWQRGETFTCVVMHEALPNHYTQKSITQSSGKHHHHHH

[3] = target: T3, human TRAIL-R2:alpaca Fc (hTRAIL-R2:Fc) (human; Lama pacos (alpaca)); experiment: SPR, Biacore X-100, multi-cycle kinetics, 4E6 monomer as analyte (0.919-117.6 nM)
T3 construct: also called hTRAIL-R2:Fc antigen; recombinant human TRAIL-R2:Fc antigen
T3 chain: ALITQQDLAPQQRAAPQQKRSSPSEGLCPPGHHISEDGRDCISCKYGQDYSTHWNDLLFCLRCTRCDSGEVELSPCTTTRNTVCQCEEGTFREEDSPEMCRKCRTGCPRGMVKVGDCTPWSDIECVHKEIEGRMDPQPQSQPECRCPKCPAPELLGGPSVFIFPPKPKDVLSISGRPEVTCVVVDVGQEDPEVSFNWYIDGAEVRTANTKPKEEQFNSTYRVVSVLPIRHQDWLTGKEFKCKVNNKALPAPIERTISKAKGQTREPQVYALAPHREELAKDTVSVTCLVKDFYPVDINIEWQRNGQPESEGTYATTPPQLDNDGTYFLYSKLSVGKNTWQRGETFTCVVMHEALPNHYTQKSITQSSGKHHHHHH

[4] = target: T4, bovine serum albumin (bovine, UniProt P02769 25-607); experiment: ELISA, BSA coated at 1 or 10 µg/ml, 4E6 monomer at 1 µg/ml, detected with anti-Myc 9E10 and anti-mouse IgG HRP, OD450
T4 construct: also called BSA; BSA negative antigen
T4 sequence (P02769 25-607 limits assumed): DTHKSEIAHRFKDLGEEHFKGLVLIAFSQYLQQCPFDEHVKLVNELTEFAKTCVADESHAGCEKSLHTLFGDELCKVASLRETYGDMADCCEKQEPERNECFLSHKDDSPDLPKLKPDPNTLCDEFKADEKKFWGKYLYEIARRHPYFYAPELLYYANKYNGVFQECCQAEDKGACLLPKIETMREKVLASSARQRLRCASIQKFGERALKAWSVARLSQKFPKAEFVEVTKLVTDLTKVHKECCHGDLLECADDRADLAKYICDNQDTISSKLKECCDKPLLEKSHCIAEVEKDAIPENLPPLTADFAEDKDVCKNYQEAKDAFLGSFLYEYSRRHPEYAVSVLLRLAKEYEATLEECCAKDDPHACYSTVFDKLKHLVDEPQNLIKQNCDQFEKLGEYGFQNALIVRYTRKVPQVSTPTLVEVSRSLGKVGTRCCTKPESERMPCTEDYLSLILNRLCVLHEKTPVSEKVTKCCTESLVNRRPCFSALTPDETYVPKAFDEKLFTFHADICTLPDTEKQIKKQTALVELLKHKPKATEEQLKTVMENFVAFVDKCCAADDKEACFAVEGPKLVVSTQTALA

B1: 4E6 monomer (anti-hTRAIL-R2 VHH antibody/Myc-Tag, expressed in E. coli) (VHH)
VHH: EVQLVESGGGSVQAGDSLRLSCAASGRTFGSIRVGWFRQTPGKEREFVAAINRNDGTTYYADSVKGRFTISRDNAKNTVYMQMASLKPEDTAVYYCAAGLQYNRSADRVPVGAVYWGQGTQVTVSS
notes: also called 4E6 VHH monomer; 4E6 monomeric protein
Question: Does B1 bind [1]?
Answer: Result: no binding (tested: 10 µg/ml)

Question: Does B1 bind [2]?
Answer: Result: no binding (tested: 10 µg/ml)

Question: And the Kd [3]?
Answer: Its Kd is 75 pM.

Question: Does B1 bind [4]?
Answer: Result: no binding (tested: 1 µg/ml)
